Earlier results, collected in patent publication US4636489A, “Modified protease inhibitors, process for their preparation, and pharmaceutical compositions prepared therefrom” (Plantorganwerk KG, priority 1983, dated 1987).

B1: eglin C: protease inhibitor from leech extracts consisting of 70 amino acid radicals, described in DE-OS No. 28 08 396 (protein, UniProt P01051 1-70, looked up)
Eglin C: TEFGSELKSFPEVVGKTVDQAREYFTLHYPQYDVYFLPEGSPVTLDLRYNRVRVFYNPGTNVVNHVPHVG
inhibition of trypsin (trypsin): only poor inhibitors
inhibition of cathepsin G (cathepsin G): strongly inhibit
inhibition of pancreaselastase (pancreaselastase): only poor inhibitors
inhibition of subtilisin (subtilisin): strongly inhibit
inhibition of chymotrypsin (chymotrypsin): strongly inhibit
inhibition of PMN-granulocyte elastase (PMN-granulocyte elastase): strongly inhibit
